No end group written: not given here. *: point of attachment. Biotin = O=C1N[C@H]2[C@H](CS[C@H]2CCCCC(=O)*)N1
Tests used:
asyn_113-127 [1] = biological target: T1, asyn_113-127 (human); test: Ala-scan peptide ELISA, row E, run 1
T1 construct: also called pep1
T1 peptide: Biotin-LEDMPVDPDNEAYEM
Method: (§1) 96-well Nunc plates were coated with 50 μL per well of 1 μg/mL streptavidin (from Jackson Immuno Research Laboratory) in PBS at 4° C. overnight. The plates were washed three times with PBST, and blocked with PBS containing 3% BSA at room temperature for 1 hour. The N-terminal biotinylated peptides were dissolved in Milli Q water to a concentration of 2 mg/mL, then further diluted to a concentration of 2 μg/mL with PBS. 50 μl of the diluted peptide was applied to the streptavidin-coated plates and incubated at 4° C. overnight. 2 μg/mL of biotinylated human alpha-synuclein was used as the positive control. The plates were washed three times with PBST before use. Purified antibody was diluted by serial dilution methods, from 20 μg/mL to 1 ng/mL, and 50 μL of the antibody solution was added to the peptide-coated wells. The plates were incubated for 1 hour at room temperature, then washed three times with PBST. Secondary detection antibody (goat anti-rat HRP (obtained from Southern Biotech)) was added with 1:5,000 dilutions and incubated for 1 hour at room temperature, then washed three times with PBST. Plates were developed with 50 μL/well of TMB substrate (Thermo Fisher) and quenched with 50 μL/well of 1 N sulfuric acid. The signal was quantified on a BioTek® plate reader at A450. A parallel repeat was performed for each peptide in a separate plate.

asyn_113-127_113A [2] = biological target: T2, asyn_113-127_113A (human); test: Ala-scan peptide ELISA, row E, run 1
T2 construct: substitution is already in the entry; also called pep2
T2 peptide: Biotin-AEDMPVDPDNEAYEM
Method: as §1

asyn_113-127_114A [3] = biological target: T3, asyn_113-127_114A (human); test: Ala-scan peptide ELISA, row E, run 1
T3 construct: substitution is already in the entry; also called pep3
T3 peptide: Biotin-LADMPVDPDNEAYEM
Method: as §1

asyn_113-127_115A [4] = biological target: T4, asyn_113-127_115A (human); test: Ala-scan peptide ELISA, row E, run 1
T4 construct: substitution is already in the entry; also called pep4
T4 peptide: Biotin-LEAMPVDPDNEAYEM
Method: as §1

asyn_113-127_116A [5] = biological target: T5, asyn_113-127_116A (human); test: Ala-scan peptide ELISA, row E, run 1
T5 construct: substitution is already in the entry; also called pep5
T5 peptide: Biotin-LEDAPVDPDNEAYEM
Method: as §1

asyn_113-127_117A [6] = biological target: T6, asyn_113-127_117A (human); test: Ala-scan peptide ELISA, row E, run 1
T6 construct: substitution is already in the entry; also called pep6
T6 peptide: Biotin-LEDMAVDPDNEAYEM
Method: as §1

asyn_113-127_118A [7] = biological target: T7, asyn_113-127_118A (human); test: Ala-scan peptide ELISA, row E, run 1
T7 construct: substitution is already in the entry; also called pep7
T7 peptide: Biotin-LEDMPADPDNEAYEM
Method: as §1

asyn_113-127_119A [8] = biological target: T8, asyn_113-127_119A (human); test: Ala-scan peptide ELISA, row E, run 1
T8 construct: substitution is already in the entry; also called pep8
T8 peptide: Biotin-LEDMPVAPDNEAYEM
Method: as §1

asyn_113-127_120A [9] = biological target: T9, asyn_113-127_120A (human); test: Ala-scan peptide ELISA, row E, run 1
T9 construct: substitution is already in the entry; also called pep9
T9 peptide: Biotin-LEDMPVDADNEAYEM
Method: as §1

asyn_113-127_121A [10] = biological target: T10, asyn_113-127_121A (human); test: Ala-scan peptide ELISA, row E, run 1
T10 construct: substitution is already in the entry; also called pep10
T10 peptide: Biotin-LEDMPVDPANEAYEM
Method: as §1

asyn_113-127_122A [11] = biological target: T11, asyn_113-127_122A (human); test: Ala-scan peptide ELISA, row E, run 1
T11 construct: substitution is already in the entry; also called pep11
T11 peptide: Biotin-LEDMPVDPDAEAYEM
Method: as §1

asyn_113-127_123A [12] = biological target: T12, asyn_113-127_123A (human); test: Ala-scan peptide ELISA, row E, run 1
T12 construct: substitution is already in the entry; also called pep12
T12 peptide: Biotin-LEDMPVDPDNAAYEM
Method: as §1

asyn_113-127_124G [13] = biological target: T13, asyn_113-127_124G (human); test: Ala-scan peptide ELISA, row E, run 1
T13 construct: substitution is already in the entry; also called pep13
T13 peptide: Biotin-LEDMPVDPDNEGYEM
Method: as §1

asyn_113-127_124P [14] = biological target: T14, asyn_113-127_124P (human); test: Ala-scan peptide ELISA, row E, run 1
T14 construct: substitution is already in the entry; also called pep14
T14 peptide: Biotin-LEDMPVDPDNEPYEM
Method: as §1

asyn_113-127_125A [15] = biological target: T15, asyn_113-127_125A (human); test: Ala-scan peptide ELISA, row E, run 1
T15 construct: substitution is already in the entry; also called pep15
T15 peptide: Biotin-LEDMPVDPDNEAAEM
Method: as §1

asyn_113-127_126A [16] = biological target: T16, asyn_113-127_126A (human); test: Ala-scan peptide ELISA, row E, run 1
T16 construct: substitution is already in the entry; also called pep16
T16 peptide: Biotin-LEDMPVDPDNEAYAM
Method: as §1

asyn_113-127_127A [17] = biological target: T17, asyn_113-127_127A (human); test: Ala-scan peptide ELISA, row E, run 1
T17 construct: substitution is already in the entry; also called pep17
T17 peptide: Biotin-LEDMPVDPDNEAYEA
Method: as §1

[18] = biological target: T18, biotinylated human alpha-synuclein (human, UniProt P37840 1-140); test: Ala-scan peptide ELISA, row E, run 1
Method: as §1

asyn_113-127 [19] = biological target: T1, asyn_113-127; test: Ala-scan peptide ELISA, row G, run 1
Method: as §1

asyn_113-127_113A [20] = biological target: T2, asyn_113-127_113A; test: Ala-scan peptide ELISA, row G, run 1
Method: as §1

asyn_113-127_114A [21] = biological target: T3, asyn_113-127_114A; test: Ala-scan peptide ELISA, row G, run 1
Method: as §1

asyn_113-127_115A [22] = biological target: T4, asyn_113-127_115A; test: Ala-scan peptide ELISA, row G, run 1
Method: as §1

asyn_113-127_116A [23] = biological target: T5, asyn_113-127_116A; test: Ala-scan peptide ELISA, row G, run 1
Method: as §1

asyn_113-127_117A [24] = biological target: T6, asyn_113-127_117A; test: Ala-scan peptide ELISA, row G, run 1
Method: as §1

asyn_113-127_118A [25] = biological target: T7, asyn_113-127_118A; test: Ala-scan peptide ELISA, row G, run 1
Method: as §1

asyn_113-127_119A [26] = biological target: T8, asyn_113-127_119A; test: Ala-scan peptide ELISA, row G, run 1
Method: as §1

asyn_113-127_120A [27] = biological target: T9, asyn_113-127_120A; test: Ala-scan peptide ELISA, row G, run 1
Method: as §1

asyn_113-127_121A [28] = biological target: T10, asyn_113-127_121A; test: Ala-scan peptide ELISA, row G, run 1
Method: as §1

asyn_113-127_122A [29] = biological target: T11, asyn_113-127_122A; test: Ala-scan peptide ELISA, row G, run 1
Method: as §1

asyn_113-127_123A [30] = biological target: T12, asyn_113-127_123A; test: Ala-scan peptide ELISA, row G, run 1
Method: as §1

asyn_113-127_124G [31] = biological target: T13, asyn_113-127_124G; test: Ala-scan peptide ELISA, row G, run 1
Method: as §1

asyn_113-127_124P [32] = biological target: T14, asyn_113-127_124P; test: Ala-scan peptide ELISA, row G, run 1
Method: as §1

asyn_113-127_125A [33] = biological target: T15, asyn_113-127_125A; test: Ala-scan peptide ELISA, row G, run 1
Method: as §1

asyn_113-127_126A [34] = biological target: T16, asyn_113-127_126A; test: Ala-scan peptide ELISA, row G, run 1
Method: as §1

asyn_113-127_127A [35] = biological target: T17, asyn_113-127_127A; test: Ala-scan peptide ELISA, row G, run 1
Method: as §1

[36] = biological target: T18, biotinylated human alpha-synuclein; test: Ala-scan peptide ELISA, row G, run 1
Method: as §1

B1: 20H4 (antibody, rat IgG2b, V domains shown)
VH: AVQLVESGGGLVQPKESLKISCAASGFTFSNAAMYWVRQAPGKGLELLARIRTKPNNYATYHADSVKGRFTISRDDSQSMVYLHMGNLKTEDTAMYYCTADMATGDYWGPGVMVTVSS
VL: DIQMTQSPPVLSVSVGDRVTLSCKASQNINKNLDWYQQKHGEAPKPLIYSTNNLQTGVPSRFSGSGSGTDYTLTISSLQPEDVATYYCYQYKSAWTFGGGTKLELR
notes: also called clone 20H4; rat 20H4
asyn_113-127 [1]
  A450: 0.297 OD
asyn_113-127_113A [2]
  A450: 0.302 OD
asyn_113-127_114A [3]
  A450: 0.273 OD
asyn_113-127_115A [4]
  A450: 0.183 OD
asyn_113-127_116A [5]
  A450: 0.296 OD
asyn_113-127_117A [6]
  A450: 0.304 OD
asyn_113-127_118A [7]
  A450: 0.324 OD
asyn_113-127_119A [8]
  A450: 0.05 OD
asyn_113-127_120A [9]
  A450: 0.2 OD
asyn_113-127_121A [10]
  A450: 0.249 OD
asyn_113-127_122A [11]
  A450: 0.051 OD
asyn_113-127_123A [12]
  A450: 0.282 OD
asyn_113-127_124G [13]
  A450: 0.214 OD
asyn_113-127_124P [14]
  A450: 0.044 OD
asyn_113-127_125A [15]
  A450: 0.045 OD
asyn_113-127_126A [16]
  A450: 0.235 OD
asyn_113-127_127A [17]
  A450: 0.248 OD
[18]
  A450: 0.383 OD
asyn_113-127 [19]
  A450: 0.089 OD
asyn_113-127_113A [20]
  A450: 0.095 OD
asyn_113-127_114A [21]
  A450: 0.083 OD
asyn_113-127_115A [22]
  A450: 0.058 OD
asyn_113-127_116A [23]
  A450: 0.098 OD
asyn_113-127_117A [24]
  A450: 0.102 OD
asyn_113-127_118A [25]
  A450: 0.107 OD
asyn_113-127_119A [26]
  A450: 0.048 OD
asyn_113-127_120A [27]
  A450: 0.08 OD
asyn_113-127_121A [28]
  A450: 0.091 OD
asyn_113-127_122A [29]
  A450: 0.049 OD
asyn_113-127_123A [30]
  A450: 0.093 OD
asyn_113-127_124G [31]
  A450: 0.099 OD
asyn_113-127_124P [32]
  A450: 0.044 OD
asyn_113-127_125A [33]
  A450: 0.046 OD
asyn_113-127_126A [34]
  A450: 0.098 OD
asyn_113-127_127A [35]
  A450: 0.094 OD
[36]
  A450: 0.141 OD
